This note sets out measurements from patent US20240392003A1 (NUMAB THERAPEUTICS, published 2024).

For assay [1], the target named is T1, recombinant Cynomolgus monkey CD3ε (His-Tag; SinoBiological) (Cynomolgus monkey, UniProt Q95LI5 22-117).
T1 construct: Bought; also called cCD3ε; not shown: His tag
T1 sequence (looked up): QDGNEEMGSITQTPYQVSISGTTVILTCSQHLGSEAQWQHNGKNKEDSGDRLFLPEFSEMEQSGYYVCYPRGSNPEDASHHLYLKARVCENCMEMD
In words: SPR; cCD3ε immobilized, two-state fit.

For assay [2], the target named is T2, recombinant human CD3 epsilon extra-cellular domain protein (His-Tag, SinoBiological) (human, UniProt P07766 23-126).
T2 construct: extracellular domain; Bought; also called hCD3ε; human CD3ε; not shown: His tag
In words: SPR; hCD3ε immobilized, two-state fit.

Assay [3] has as its target T1, recombinant Cynomolgus monkey CD3ε …. The assay can be described thus: SPR; cCD3ε immobilized, two-state fit (Ka1). For orientation: Surface plasmon resonance follows binding to a sensor surface in real time, without labels.
Method: (§1) Recombinant hCD3ε molecules were covalently immobilized to a carboxymethylated dextran surface (CM5 sensorchip; Biacore, Cytiva) and a titration series of PR0726 was injected as analyte. After each analyte injection-cycle, every flow channel on the sensor chip was regenerated (Glycine, pH 2.0), and a new concentration of PR0726 was injected.
(§2) The binding kinetics to hCD3ε was measured using a multi-cycle kinetic assay, with eight analyte concentrations ranging from 0.7 to 90 nM, 1:2 diluted in running buffer (HEPES buffered saline, 0.05% Tween-20, pH 7.5; Bioconcept). The apparent dissociation (kd1) and association (kₐ₁) rate constants, the second reaction constants (kₐ₂ and kd2) and the apparent dissociation equilibrium constant (KD) were calculated with the Biacore analysis software (Biacore Evaluation software Version 3.2, Cytiva) using a two-state binding model and quality of the fits was monitored based on relative Chi2. The binding level was calculated as the maximum stability binding achieved normalized to the theoretical Rmax.
(§3) Binding kinetics to recombinant Cynomolgus monkey CD3ε (cCD3ε; His-Tag; SinoBiological) were measured as mentioned above for hCD3ε, with the exception that cCD3εwas used instead of hCD3ε.
Assay [4] shares this target. The assay can be described thus: SPR; cCD3ε immobilized, two-state fit (Kd1).
Method: as §1, §2, §3
Assay [5] concerns the target T2, recombinant human CD3 epsilon …. The assay can be described thus: SPR; hCD3ε immobilized, two-state fit (Ka1).
Method: (§4) The apparent dissociation (kd1) and association (kₐ₁) rate constants, the second reaction constants (kₐ₂ and kd2) and the apparent dissociation equilibrium constant (KD) were calculated with the Biacore analysis software (Biacore Evaluation software Version 3.2, Cytiva) using a two-state binding model and quality of the fits was monitored based on relative Chi2. The binding level was calculated as the maximum stability binding achieved normalized to the theoretical Rmax.
Assay [6] has the same target. The assay can be described thus: SPR; hCD3ε immobilized, two-state fit (Kd1).
Method: as §4
For assay [7], the target named is T3, recombinant human ROR1 protein (Fc-Tag, Acro Biosystems RO1-H5250) (human, UniProt Q01973 30-406).
T3 construct: Bought; also called hROR1; recombinant human ROR1 ECD; not shown: Fc tag
In words: SPR; hROR1-Fc immobilized.

Assay [8] has as its target T4, human ROR1 expressed on cells (human, UniProt Q01973 30-937).
T4 construct: whole, on cells; One molecule for cell-surface ROR1 on all cell lines; the cell line is named under assay; also called hROR1; plasma membrane human ROR1
The assay can be described thus: flow cytometry, MDA-MB-231 cells. (A flow cytometer gives signals particle by particle.)
Method: After three washing steps with PBS-EB, cells were centrifuged and washing buffer was aspirated. […] After incubation at 4° C. for 1 h, plates were washed three times using 100 μl of PBS-EB. Cells incubated with scFvs were re-suspended with 100 μl of Numab's framework specific detection antibody (PRO2268, rabbit 1 gG) and incubated at 4° C. for 30 min. Following a washing step, PRO2268 was subsequentially detected by the addition of anti-rabbit IgG antibody labeled with APC at a concentration of 2 μg/ml and incubated for 1 h at 4° C. […] Next, cells were washed again three times using 100 μl of PBS-EB per well. […] The fluorescence intensity of the APC channel was recorded for each sample and the geometric mean of the fluorescence intensity (MFI) was calculated. The data were single-referenced (subtracted for fluorescence intensity found on cells incubated with detection reagents only), and subsequent concentration-response curves were fitted using a 4-PL fit (GraphPad Prism software).
Plasma membrane binding of optimized scFvs to human ROR1-expressing MDA-MB-231 cells by flow cytometry was performed as described above. […] After incubation at 4° C. for 1 h, plates were washed and incubated with specific detection antibodies.

Assay [9] has as its target T4, human ROR1 expressed on cells. In words: flow cytometry, MDA-MB-231 cells. This is another data set of the same source.
Method: Cell suspensions were centrifuged for 5 min at 400×g and 100 μl of cell suspensions (50,000 cells) diluted in PBS-EB (1×DPBS, 2% FCS H.I., 2 mM EDTA) were added to designated wells in a non-binding 96-wel plate. After three washing steps with PBS-EB, cells were centrifuged and washing buffer was aspirated. […] After incubation at 4° C. for 1 h, plates were washed three times using 100 μl of PBS-EB. Cells incubated with scFvs were re-suspended with 100 μl of Numab's framework specific detection antibody (PRO2268, rabbit 1 gG) and incubated at 4° C. for 30 min. Following a washing step, PRO2268 was subsequentially detected by the addition of anti-rabbit IgG antibody labeled with APC at a concentration of 2 μg/ml and incubated for 1 h at 4° C. […] Next, cells were washed again three times using 100 μl of PBS-EB per well. […] The fluorescence intensity of the APC channel was recorded for each sample and the geometric mean of the fluorescence intensity (MFI) was calculated. The data were single-referenced (subtracted for fluorescence intensity found on cells incubated with detection reagents only), and subsequent concentration-response curves were fitted using a 4-PL fit (GraphPad Prism software).
Plasma membrane binding of optimized scFvs to human ROR1-expressing MDA-MB-231 cells by flow cytometry was performed as described above.
Assay [10] has as its target T3, recombinant human ROR1 protein (Fc-Tag, …). In words: SPR; hROR1-Fc immobilized. The source holds these as a separate data set.
Method: Binding kinetics (including affinity) of the nine scMATCH3 molecules to recombinant human ROR1 protein (Fc-Tag, Acro Biosystems) were determined by SPR analysis on a T200 device (Biacore, Cytiva), as described in section 1.6. Recombinant human ROR1 molecules were covalently immobilized to a carboxymethylated dextran surface (CM5 sensorchip; Biacore, Cytiva) and a titration series of each MATCH3 molecule was injected as analyte. After each analyte injection-cycle, every flow channel on the sensor chip was regenerated (Glycine, pH 2.0 and 3 M MgC₂), and a new concentration of MATCH3 molecule was injected. […] The apparent dissociation (kd) and association (kₐ) rate constants and the apparent dissociation equilibrium constant (KD) were calculated with the Biacore analysis software (Biacore Evaluation software Version 3.2, Cytiva) using a one-to-one Langmuir binding model, and quality of the fits was monitored based on Chi2 and U-value, which are measures for the quality of the curve fitting. The binding level was calculated as the maximum stability binding achieved normalized to the theoretical Rmax.
The target in assay [11] is T2, recombinant human CD3 epsilon …. The assay can be described thus: SPR; hCD3ε immobilized, two-state fit. This is another data set of the same source.
Method: (§5) Binding kinetics (including affinity) of the nine selected scMATCH3 molecules to recombinant human CD3 epsilon extra-cellular domain protein (hCD3ε; His-Tag, SinoBiological) were determined by SPR analysis on a T200 device (Biacore, Cytiva). Recombinant hCD3ε molecules were covalently immobilized to a carboxymethylated dextran surface (CM5 sensorchip; Biacore, Cytiva) and a titration series of each MATCH3 molecule was injected as analyte. After each analyte injection-cycle, every flow channel on the sensor chip was regenerated (Glycine, pH 2.0 and 3 M MgCl₂), and a new concentration of MATCH3 molecule was injected. […] The apparent dissociation (kₐ₁) and association (kₐ₁) rate constants, the second reaction constants (kₐ₂ and kd) and the apparent dissociation equilibrium constant (KD) were calculated with the Biacore analysis software (Biacore Evaluation software Version 3.2, Cytiva) using a two-state binding model, and quality of the fits was monitored based on relative Chi2. The binding level was calculated as the maximum stability binding achieved normalized to the theoretical Rmax.
The target is the same in assay [12]. In words: SPR; hCD3ε immobilized, two-state fit (ka1).
Method: as §5
For assay [13] the target is unchanged. In words: SPR; hCD3ε immobilized, two-state fit (kd1).
The target in assay [14] is T4, human ROR1 expressed on cells. In words: flow cytometry, MDA-MB-231 cells, 1 mg/ml hSA.
Method: After incubation at 4° C. for 1 h in presence of 1 mg/mi of human serum albumin (hSA), plates were washed and incubated with specific detection antibodies.
The binding of anti-ROR1xhSAxCD3 scMATCH3 molecules to plasma membrane human ROR1 was assessed by flow cytometry.
Assay [15] shares this target. In words: flow cytometry, gated on CLL patient tumor cells (ROR1 about 8k/cell), titration in the presence of human serum albumin, labelled framework-specific secondary reagent.
The target is the same in assay [16]. The assay can be described thus: cell-based or functional assay.
Assay [17] has the same target. The assay can be described thus: cell-based or functional assay. This is another data set of the same source.
For assay [18] the target is unchanged. In words: cell-based or functional assay. The source holds these as a separate data set.
Assay [19] addresses T3, recombinant human ROR1 protein (Fc-Tag, …). The assay can be described thus: SPR; hROR1-Fc immobilized (Avidity).
Assay [20] addresses T2, recombinant human CD3 epsilon …. The assay can be described thus: SPR; hCD3ε immobilized, two-state fit. This is another data set of the same source.
Assay [21] shares this target. In words: SPR; hCD3ε immobilized, two-state fit (Ka1). This is another data set of the same source.
Method: (§6) Binding kinetics (including affinity) of the four MATCH4 molecules to recombinant human CD3 epsilon extra-cellular domain protein (hCD3ε; His-Tag, SinoBiological) were determined by SPR analysis on a T200 device (Biacore, Cytiva). Recombinant hCD3ε molecules were covalently immobilized to a carboxymethylated dextran surface (CM5 sensorchip; Biacore, Cytiva) and a titration series of each MATCH4 molecule was injected as analyte. After each analyte injection-cycle, every flow channel on the sensor chip was regenerated (Glycine, pH 2.0 and 3 M MgCl₂), and a new concentration of MATCH4 molecule was injected. […] The apparent dissociation (kd1) and association (kₐ₁) rate constants, the second reaction constants (kₐ₂ and kd2) and the apparent dissociation equilibrium constant (KD) were calculated with the Biacore analysis software (Biacore Evaluation software Version 3.2, Cytiva) using a two-state binding model, and the quality of the fits was monitored based on relative Chi2. The binding level was calculated as the maximum stability binding achieved normalized to the theoretical Rmax.
Assay [22] shares this target. In words: SPR; hCD3ε immobilized, two-state fit (kd1). The source holds these as a separate data set.
Method: as §6
Assay [23] addresses T4, human ROR1 expressed on cells. The assay can be described thus: flow cytometry, MDA-MB-231 cells, 1 mg/ml hSA. The source holds these as a separate data set.
Method: After incubation at 4° C. for 1 h in presence of 1 mg/ml of human serum albumin (hSA), plates were washed and incubated with specific detection antibodies.
The binding of MATCH4 molecules to plasma membrane-based human ROR1 was assessed by flow cytometry. The calculated EC₅₀, rel.
The target in assay [24] is T5, human ROR1 (Peprotech 160-054) (human, UniProt Q01973 30-406).
T5 construct: Bought, used as analyte; also called hROR1; recombinant human ROR1 protein
In words: SPR; MATCH4 captured, hROR1 analyte (Affinity).

Assay [25] addresses T4, human ROR1 expressed on cells. The assay can be described thus: flow cytometry, JIMT-1 cells (ROR1-positive).

Read-outs that look alike come from different tables or passages of the source.

B1: PRO726 (scFv, V domains shown)
VH: EVQLVESGGGLVQPGGSLRLSCAASGFSLSSYDMSWVRQAPGKGLAWIGASYASGPTYYASWAKGRFTISRDNSKNTVYLQMNSLRAEDTATYFCARGGWTGTSHSNIWGQGTLVTVSS
VL: DIQMTQSPSSLSASVGDRVTITCQSSQSVFSNNYLAWFQQKPGQSPKRLIYSASTLASGVPSRFSGSGSGTDFTLTISSLQPEDFATYYCLGSYACSSADCYVFGTGTKVTVLG
notes: scFv; also called 28-21-D09-sc04; anti-CD3 scFv
For orientation: kon means the rate constant with which the complex forms. The koff is the rate constant with which the complex falls apart. As for B1, the results for the Kd in assay [1] and in assay [2] were 4.8 nM and 5.3 nM, respectively. Also, the values for the on-rate (kon) in assay [3] and in assay [5] were 820000 M⁻¹ s⁻¹ and 650000 M⁻¹ s⁻¹, respectively. For the same molecule, the dissociation rate constant (koff) stood at 0.0062 s⁻¹ in assay [4] and 0.0055 s⁻¹ in assay [6].

B2: PRO2271 (scFv, V domains shown)
VH: QSQLVESGGGLVQPGGSLRLSCAVSGIDLSRNAMSWVRQAPGKGLEWIGIILTSGSTYYASWAKGRFTISKTSTTLDLQMNSLRAEDTAVYFCVRGIASSSLKSFWGQGTLVTVSS
VL: AQQLTQSPSSLSASVGDRVTITCQASQNVWNNNYLSWFQQKPGKPPKLLIVTASTLASGVSSRFSGSGSGTDFTLTISSLQPEDFATYYCAGGFSGEIRAFGTGTKVTVLG
notes: scFv, T cell score optimized variant of PRO2062; also called 55-39-G02-sc03
Usually EC50 stands for the concentration that produces a half-maximal response. With B2, in assay [7], the Kd worked out at 0.364 nM, the koff was determined as 0.000578 s⁻¹ and the kon was determined as 1.59e+06 M⁻¹ s⁻¹. Further, the “fold lower apparent binding affinity than PRO2062” value in [8] is approximately 2 fold. For the same molecule, in [9], the midpoint of the response, the EC50, lay at 0.63 nM and the “Rel. maximum binding (MFIscFv/MFIPRO2213)” value stood at 0.87.

B3: PRO2668 (bispecific antibody)
chain: AFELTQSPSSLSASVGDRVTITCQASESINSRLAWYQQKPGQPPKLLIYDASDLTSGVPSRFSGSGSGTDFTLTISSLQPEDFATYYCQGYGGSSTTTFGCGTKLTVLGGGGGSEVQLVESGGGRVQPGGSLRLSCAASGFSLSSYDMSWVRQAPGKGLAWIGASYASGPTYYASWAKGRFTISRDNSKNTVYLQMNSLRAEDTATYFCARGGWTGTSHSNIWGQGTQVTVSSGGGGSGGGGSGGGGSGGGGSDIQMTQSPSSLSASVGDRVTITCQSSQSVFSNNYLAWFQQKPGQSPKRLIYSASTLASGVPSRFSGSGSGTDFTLTISSLQPEDFATYYCLGSYACSSADCYVFGTGTKVTVLGGGGGSEVQLVESGGGRVQPGGSLRLSCAASGFSLSSYAMNWVRQAPGKCLEWIGHINAGDIAYYATWAKGRFTISRDNSKNTVYLQMNSLRAEDTATYFCARGAGGFSTGPFKLWGQGTQVTVSSGGGGSGGGGSAQQLTQSPSSLSASVGDRVTITCQASQNVWNNNYLSWFQQKPGKPPKLLIVTASTLASGVSSRFSGSGSGTDFTLTISSLQPEDFATYYCAGGFSGEIRAFGCGTKVTVLGGGGGSGGGGSGGGGSGGGGSQSQLVESGGGRVQPGGSLRLSCAVSGLSLSRNAMSWVRQAPGKCLEWIGIILTSGSTYYASWAKGRFTISKDNSKNTVYLQMNSLRAEDTATYFCVRGIASSSLKSFWGQGTQVTVSS
notes: trispecific anti-ROR1 x hSA x CD3 scMATCH3, single chain, optimized variant of PRO2510; also called 19-04-A10-sc06(RTQ) scDb-o/28-21-D09-sc04 (RTQ) scDb-i/55-39-G02-sc05(RTQ)-scFv; RPO2668
For orientation: EC50 (read off the curve) means the concentration at which the effect is half-maximal. Regarding B3, in [10], the Kd was determined as 0.28 nM, the koff turned out to be 0.00056 s⁻¹ and the on-rate constant (kon) came out at 2e+06 M⁻¹ s⁻¹. In assay [11], the Kd was found to be 1.8 nM, the ka2 turned out to be 0.0049 s⁻¹ and the kd2 worked out at 0.0023 s⁻¹. Besides, the kon in assay [12] came out at 2.5e+06 M⁻¹ s⁻¹. In addition, the koff in assay [13] was found to be 0.0047 s⁻¹. Besides, in assay [14], it took 0.74 nM to reach a half-maximal effect (EC50) and the “Rel. maximum binding (MFIscMATCH3/MFIPRO2213)” value is 2.89. Moreover, the concentration giving a half-maximal response (EC50 (read off the curve)) in assay [15] is approximately 1 nM.

B4: PRO2592 (bispecific antibody)
chain 1: AQQLTQSPSSLSASVGDRVTITCQASQNVWNNNYLSWFQQKPGKPPKLLIVTASTLASGVSSRFSGSGSGTDFTLTISSLQPEDFATYYCAGGFSGEIRAFGCGTKVTVLGGGGGSGGGGSGGGGSGGGGSQSQLVESGGGLVQPGGSLRLSCAVSGIDLSRNAMSWVRQAPGKCLEWIGIILTSGSTYYASWAKGRFTISKTSTTLDLQMNSLRAEDTAVYFCVRGIASSSLKSFWGQGTLVTVSSGGGGSGGGGSAFELTQSPSSLSASVGDRVTITCQASESINSRLAWYQQKPGQPPKLLIYDASDLTSGVPSRFSGSGSGTDFTLTISSLQPEDFATYYCQGYGGSSTTTFGCGTKLTVLGGGSGGSDIQMTQSPSSLSASVGDRVTITCQSSQSVFSNNYLAWFQQKPGQSPKRLIYSASTLASGVPSRFSGSGSGTDFTLTISSLQPEDFATYYCLGSYACSSADCYVFGTGTKVTVLG
chain 2: AQQLTQSPSSLSASVGDRVTITCQASQNVWNNNYLSWFQQKPGKPPKLLIVTASTLASGVSSRFSGSGSGTDFTLTISSLQPEDFATYYCAGGFSGEIRAFGCGTKVTVLGGGGGSGGGGSGGGGSGGGGSQSQLVESGGGLVQPGGSLRLSCAVSGIDLSRNAMSWVRQAPGKCLEWIGIILTSGSTYYASWAKGRFTISKTSTTLDLQMNSLRAEDTAVYFCVRGIASSSLKSFWGQGTLVTVSSGGGGSGGGGSEVQLVESGGGLVQPGGSLRLSCAASGFSLSSYDMSWVRQAPGKGLAWIGASYASGPTYYASWAKGRFTISRDNSKNTVYLQMNSLRAEDTATYFCARGGWTGTSHSNIWGQGTLVTVSSGGGSGGGSGGGSGEVQLVESGGGLVQPGGSLRLSCAASGFSLSSYAMNWVRQAPGKCLEWIGHINAGDIAYYATWAKGRFTISRDNSKNTVYLQMNSLRAEDTAVYFCARGAGGFSTGPFKLWGQGTLVTVSS
notes: heterodimeric MATCH4, bivalent for ROR1, monovalent for CD3 and hSA; also called MATCH4 with 55-39-G02-sc06 / 19-04-A10-sc06 / 28-21-D09-sc04 / 55-39-G02-sc06
Consider B4, for which, in assay [16], the “Avg. % max. lysis (JIMT-1)” value came to 24.9%, the “Avg. % max. lysis (MDA-MB-231)” value was determined as 47.1%, the “Avg. % max. lysis (SKOV3)” value worked out at 44.7% and the “Avg. EC50 (nM) CD8 T cell act. (MDA-MB-231)” value worked out at 0.011 nM. In assay [16], the “Avg. EC50 (nM) CD8 T cell act. (SKOV3)” value stood at 1.6 nM, the “Avg. EC50 (nM) Cytotoxicity (JIMT-1)” value came out at 3.3 nM, the “Avg. EC50 (nM) Cytotoxicity (MDA-MB-231)” value was 0.008 nM and the “Avg. EC50 (nM) Cytotoxicity (SKOV3)” value was 5.37 nM. In [17], the “Avg. % max. CD8 T cell act. (JIMT-1)” value is 15.5%, the “Avg. % max. CD8 T cell act. (MDA-MB-231)” value was 67%, the “Avg. % max. CD8 T cell act. (SKOV3)” value turned out to be 54.7% and the “Avg. EC50 (nM) CD8 T cell act. (JIMT-1)” value came out at 9.8 nM. In addition, in assay [17], the “Avg. EC50 (nM) CD8 T cell act. (MDA-MB-231)” value stood at 0.011 nM and the “Avg. EC50 (nM) CD8 T cell act. (SKOV3)” value is 1.6 nM. For the same molecule, in assay [18], the “Avg. % max. CD4 T cell act. (JIMT-1)” value came to 23%, the “Avg. % max. CD4 T cell act. (MDA-MB-231)” value is 79%, the “Avg. % max. CD4 T cell act. (SKOV3)” value is 75% and the “Avg. EC50 (nM) CD4 T cell act. (JIMT-1)” value was found to be 9.1 nM. For the same molecule, in [18], the “Avg. EC50 (nM) CD4 T cell act. (MDA-MB-231)” value turned out to be 0.005 nM and the “Avg. EC50 (nM) CD4 T cell act. (SKOV3)” value came out at 0.76 nM. Besides, in assay [19], the Kd is 0.0287 nM, the koff came to 5.69e-05 s⁻¹ and the on-rate (kon) amounted to 1.98e+06 M⁻¹ s⁻¹. Further, in assay [20], the Ka2 came to 0.0036 s⁻¹, the Kd is 6.3 nM and the Kd2 turned out to be 0.0036 s⁻¹. Further, the kon in assay [21] was 430000 M⁻¹ s⁻¹. Moreover, the koff in [22] came to 0.0055 s⁻¹. Besides, in assay [23], the response was half-maximal at 0.72 nM (EC50); the “Rel. maximum binding (MFIMATCH4/MFIPRO2213)” value came to 2.41; the “rel. EC50 (EC50, PRO2213/EC50, MATCH4)” value was 0.94. In assay [24], this molecule registered a Kd of 5 nM, a koff of 0.00049 s⁻¹ and an association rate constant (kon) of 98000 M⁻¹ s⁻¹. Moreover, in assay [25], the “EC50 (read off the curve)” value was approximately 0.5 nM.
